This note sets out measurements from paper PMC6066478, “Structural visualization of RNA polymerase III transcription machineries” (Cell Discovery, 2018).

One series has as its target T1, Bdp1 (B double prime) (Saccharomyces cerevisiae, UniProt P46678 1-594).
T1 construct: Bdp1, S. cerevisiae, PCR amplified from genomic DNA; Cloned in pET21b(+) at SalI and NotI; The methods cite the purification of B''(138-594) only as the procedure followed; also called subunit of TFIIIB
T1 sequence: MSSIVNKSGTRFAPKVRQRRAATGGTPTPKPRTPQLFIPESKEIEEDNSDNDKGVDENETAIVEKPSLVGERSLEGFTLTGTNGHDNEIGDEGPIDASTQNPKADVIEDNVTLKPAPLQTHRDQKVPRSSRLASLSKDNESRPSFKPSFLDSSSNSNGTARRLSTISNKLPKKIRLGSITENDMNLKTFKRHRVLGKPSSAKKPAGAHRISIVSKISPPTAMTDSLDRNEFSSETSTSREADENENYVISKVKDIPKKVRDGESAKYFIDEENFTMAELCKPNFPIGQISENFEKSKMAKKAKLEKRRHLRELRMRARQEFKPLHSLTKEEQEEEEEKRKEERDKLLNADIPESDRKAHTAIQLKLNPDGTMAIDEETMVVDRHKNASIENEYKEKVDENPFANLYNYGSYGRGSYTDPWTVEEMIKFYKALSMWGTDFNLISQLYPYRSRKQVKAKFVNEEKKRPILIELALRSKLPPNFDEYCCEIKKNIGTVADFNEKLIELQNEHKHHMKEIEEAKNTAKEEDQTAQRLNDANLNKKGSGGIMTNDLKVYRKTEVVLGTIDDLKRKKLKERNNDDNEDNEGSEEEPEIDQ
The experiment in a line: cryo-EM structure; Pol III OC, 4.1 Å (TFIIIB 4.7 Å with soft mask): same assembly on the OC scaffold with a 10-nt mismatched bubble. Particulars: both partners purified.

A further series has as its target T2, Bdp1 Δ355–372 (Saccharomyces cerevisiae, UniProt P46678 1-594, Δ355–372).
T2 construct: Same construct as m3 apart from the deletion; source: E. coli BL21 (DE3) pRARE, purified as the wild-type protein
T2 sequence (looked up): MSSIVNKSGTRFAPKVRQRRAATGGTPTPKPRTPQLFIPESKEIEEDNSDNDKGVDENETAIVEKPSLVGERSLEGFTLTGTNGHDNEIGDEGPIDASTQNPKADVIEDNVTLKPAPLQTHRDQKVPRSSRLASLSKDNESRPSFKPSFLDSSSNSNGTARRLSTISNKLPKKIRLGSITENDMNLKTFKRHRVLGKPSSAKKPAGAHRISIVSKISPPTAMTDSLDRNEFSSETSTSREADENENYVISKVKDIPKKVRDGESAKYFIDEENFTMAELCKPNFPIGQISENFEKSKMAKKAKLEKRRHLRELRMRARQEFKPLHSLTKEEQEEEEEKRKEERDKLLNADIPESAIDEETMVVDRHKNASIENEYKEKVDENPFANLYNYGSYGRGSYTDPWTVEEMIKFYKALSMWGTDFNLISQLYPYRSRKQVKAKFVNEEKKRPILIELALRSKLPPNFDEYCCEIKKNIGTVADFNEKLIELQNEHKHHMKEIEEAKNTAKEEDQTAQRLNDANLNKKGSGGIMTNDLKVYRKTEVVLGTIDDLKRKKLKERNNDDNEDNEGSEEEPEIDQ
Nature of the series: cryo-EM structure; Pol III iOC (intermediate OC), about 8.5 Å (TFIIIB lobe 15-25 Å): assembly with Bdp1 Δ355–372 on the closed DNA scaffold, assembly buffer plus 60 mM KCl; map only, no model deposited. Particulars: both partners purified.

The target of series [1] is T3, RNA polymerase III (17 subunits, incl. C160, C82/C34/C31, C53);Brf1N-TBPc-Brf1C chimera;Bdp1 (Saccharomyces cerevisiae;Saccharomyces …, UniProt P04051;P22276;P32349;P25441;P07703;P36121;P32910;P17890;P35718;P20434;P20435;P28 …, |internal_change|). The experiment in a line: cryo-EM; complex on EC scaffold, RNA not seen; 4.5 Å; EMD-7533; PIC assembled at room temperature; assembly buffer not given in the material. Particulars: protein: native;recombinant;recombinant; tags: TAP tag on C53 C terminus (TEV-cleaved, calmodulin eluted);C-terminal 6xHis;C-terminal 6xHis; copies: 1;1;1;1;1;1;1;1;1;1;1;1;1;1;1;1;1;1;1; label: biotin 5' on strand 3; mismatched bubble +12 to +22 with RNA (strand 4); strands 2 and 3 both anneal to strand 1 (2-nt gap between them).

For series [2], the target named is T3, RNA polymerase III (17 subunits, incl. …). The experiment in a line: cryo-EM; ITC; 4.1 Å; EMD-7530; PIC assembled at room temperature; assembly buffer not given in the material. Particulars: protein: native;recombinant;recombinant; tags: TAP tag on C53 C terminus (TEV-cleaved, calmodulin eluted);C-terminal 6xHis;C-terminal 6xHis; copies: 1;1;1;1;1;1;1;1;1;1;1;1;1;1;1;1;1;1;1; label: biotin 5' on strand 3; mismatched bubble with RNA (strand 4, RNA written as printed); strands 2 and 3 both anneal to strand 1 (nick between them).

Series [3] shares this target. Nature of the series: cryo-EM; OC; 4.1 Å; EMD-7531; PIC assembled at room temperature; assembly buffer not given in the material. To be noted: protein: native;recombinant;recombinant; tags: TAP tag on C53 C terminus (TEV-cleaved, calmodulin eluted);C-terminal 6xHis;C-terminal 6xHis; copies: 1;1;1;1;1;1;1;1;1;1;1;1;1;1;1;1;1;1;1; label: biotin 5' on strand 3; 10-nt mismatched bubble; strands 2 and 3 both anneal to strand 1 (nick between them).

Series [4] has the same target. The experiment in a line: cryo-EM; nOC, spontaneously melted; 4.8 Å; EMD-7532; PIC assembled at room temperature; assembly buffer not given in the material. To be noted: protein: native;recombinant;recombinant; tags: TAP tag on C53 C terminus (TEV-cleaved, calmodulin eluted);C-terminal 6xHis;C-terminal 6xHis; copies: 1;1;1;1;1;1;1;1;1;1;1;1;1;1;1;1;1;1;1; label: biotin 5' on strand 3; strand 1 fully paired; strands 2 and 3 both anneal to strand 1 (nick between them).

The target in series [5] is RNA polymerase III (17 subunits, incl. C160, C82/C34/C31, C53);Brf1N-TBPc-Brf1C chimera;Bdp1 Δ355-372 (Saccharomyces cerevisiae;Saccharomyces …, UniProt P04051;P22276;P32349;P25441;P07703;P36121;P32910;P17890;P35718;P20434;P20435;P28 …, |internal_change|del355-372). Nature of the series: cryo-EM; iOC, Brf1 ZR and C34 WH1 disordered; 8.5 Å; EMD-7534; PIC assembled at room temperature; assembly buffer not given in the material. To be noted: protein: native;recombinant;recombinant; tags: TAP tag on C53 C terminus (TEV-cleaved, calmodulin eluted);C-terminal 6xHis;C-terminal 6xHis; copies: 1;1;1;1;1;1;1;1;1;1;1;1;1;1;1;1;1;1;1; label: biotin 5' on strand 3; strand 1 fully paired; strands 2 and 3 both anneal to strand 1 (nick between them).

B1: chimera protein Brf1N-TBPc-Brf1C (other, Saccharomyces cerevisiae)
chain: MPVCKNCHGTEFERDLSNANNDLVCKACGVVSEDNPIVSEVTFGETSAGAAVVQGSFIGAGQSHAAFGGSSALESREATLNNARRKLRAVSYALHIPEYITDAAFQWYKLALANNFVQGRRSQNVIASCLYVACRKEKTHHMLIDFSSRLQVSVYSIGATFLKMVKKLHITELPLADPSLFIQHFAEKLDLADKKIKVVKDAVKLAQRMSKDWMFEGRRPAGIAGACILLACRMNNLRRTHTEIVAVSHVAEETLQQRLNEFKNTKAAKLSVQKFRENDVEDGEARPPSFVKNRKKERKIKDSLDKEEMFQTSEEALNKNPILTQVLGEQELSSKEVLFYLKQFSERRARVVERIKATNGIDGENIYHEGSENETRKRKLSEAMPWSGIVPTLQNIVATVTLGCRLDLKTVALHARNAEYNPKRFAAVIMRIREPKTTALIFASGKMVVTGAKSEDDSKLASRKYARIIQKIGFAAKFTDFKIQNIVGSCDVKFPIRLEGLAFSHGTFSSYEPELFPGLIYRMVKPKIVLLIFVSGKIVLTGAKQREEIYQAFEAIYPVLSEFRKMGSGSGSGSGSGSPRNLHLLPTTDTYLSKVSDDPDNLEDVDDEELNAHLLNEEASKLKERIWIGLNADFLLEQESKRLKQEADIATGNTSVKKKRTRRRNNTRSDEPTKTVDAAAAIGLMSDLQDKSGLHAALKAAEESGDFTTADSVKNMLQKASFSKKINYDAIDGLFR
notes: Brf1 (TFIIB-related factor), S. cerevisiae, N-terminal part up to residue 382 (residues 383-438 of Brf1 were replaced by TBPc); linker between Brf1 residue 382 and TBP residue 61; linker between TBP residue 240 and Brf1 residue 439; Brf1, S. cerevisiae, C-terminal part from residue 439 to the end of full-length Brf1; Cloned in pET21b(+) at SalI and NotI; The printed offset (632-649 in the chimera …)
As to B1, the binding result in the series with Bdp1 (B double prime) and with Bdp1 Δ355–372 was “binds” in each case.

B2: EC scaffold with 20-mer RNA (mixed)
DNA 1: ACGCCTTAACCAACTTGGCCATGGAGTCATTTTATCTTGTGTCACTTTTACAGAAAAAGTATTACTAATATATGTTGAAAAACTGGGGAATTCCATGGTCCGTA
DNA 2: TTCAACATATATTAGTAATACTTTTTCTGTAAAAGTGACACAAGATAAAAATTTTTTTTGTCCAAGTTGGTTAAGGCGT
DNA 3: TACGGACCATGGAATTCCCCAGT
RNA: UUUUUUUUUUUAGACUCCAU
For the molecule B2, the binding result in series [1] is “binds”.

B3: ITC scaffold with 6-mer RNA (mixed)
DNA 1: CAACTTGGCCATGGAGTCATTTTATCTTGTGTCACTTTTACAGAAAAAGTATTACTAATATATGTTGAAAAACTGGGGAATTCCATGGTCCGTA
DNA 2: TTTTCAACATATATTAGTAATACTTTTTCTGTATTTTTTTTTTTTTTTTAAATGACTCCATGGCCAAGTTG
DNA 3: TACGGACCATGGAATTCCCCAGT
?: ACAAGA
In the case of B3, the binding result in series [2] was “binds”.

B4: OC (open complex) scaffold (dsDNA)
DNA 1: CAACTTGGCCATGGAGTCATTTTATCTTGTGTCACTTTTACAGAAAAAGTATTACTAATATATGTTGAAAAACTGGGGAATTCCATGGTCCGTA
DNA 2: TTTTCAACATATATTAGTAATACTTTTTCTGTATTTTTTTTTTAAGATAAAATGACTCCATGGCCAAGTTG
DNA 3: TACGGACCATGGAATTCCCCAGT
As for B4, in series [3], the binding result was “binds”.

B5: CC (closed complex) scaffold (dsDNA)
DNA 1: CAACTTGGCCATGGAGTCATTTTATCTTGTGTCACTTTTACAGAAAAAGTATTACTAATATATGTTGAAAAACTGGGGAATTCCATGGTCCGTA
DNA 2: TTTTCAACATATATTAGTAATACTTTTTCTGTAAAAGTGACACAAGATAAAATGACTCCATGGCCAAGTTG
DNA 3: TACGGACCATGGAATTCCCCAGT
Take B5: the binding result in series [4] and in series [5] was “binds” each time.

B6: C34 subunit of Pol III (natural protein, Saccharomyces cerevisiae, UniProt P32910 1-317, looked up)
chain: MSGMIENGLQLSDNAKTLHSQMMSKGIGALFTQQELQKQMGIGSLTDLMSIVQELLDKNLIKLVKQNDELKFQGVLESEAQKKATMSAEEALVYSYIEASGREGIWSKTIKARTNLHQHVVLKCLKSLESQRYVKSVKSVKFPTRKIYMLYSLQPSVDITGGPWFTDGELDIEFINSLLTIVWRFISENTFPNGFKNFENGPKKNVFYAPNVKNYSTTQEILEFITAAQVANVELTPSNIRSLCEVLVYDDKLEKVTHDCYRVTLESILQMNQGEGEPEAGNKALEDEEEFSIFNYFKMFPASKHDKEVVYFDEWTI
notes: C34, subunit of the Pol III-specific heterotrimer C82/34/31, S. cerevisiae; WH1 residues 10-77, WH2 residues 78-158; Stood in the assay as a subunit of the whole Pol III; source: endogenous, purified from S. cerevisiae as a subunit of Pol III (TAP tag on C53)
For the molecule B6, the binding result with Bdp1 (B double prime) was “binds”.

B7: TATA box-binding protein (TBP) core domain, the TBPc part of the chimera Brf1N-TBPc-Brf1C (domain or fragment, Saccharomyces cerevisiae, UniProt P13393 61-240, looked up)
chain: SGIVPTLQNIVATVTLGCRLDLKTVALHARNAEYNPKRFAAVIMRIREPKTTALIFASGKMVVTGAKSEDDSKLASRKYARIIQKIGFAAKFTDFKIQNIVGSCDVKFPIRLEGLAFSHGTFSSYEPELFPGLIYRMVKPKIVLLIFVSGKIVLTGAKQREEIYQAFEAIYPVLSEFRKM
notes: TBP, S. cerevisiae, core domain residues 61-240; In the assay TBPc stood inside the chain of the chimera m2, between Brf1 1-382 and Brf1 439-end; this molecule is made only for the rows of TBP with Brf1 and Bdp1; source: E. coli BL21 (DE3) pRARE, purified, as part of the chimera m2
On to B7, for which the binding result in the series with Bdp1 (B double prime) is given as “binds”.
